For 10 variants, response (relative band intensity) results are on record in PMC6949295 (2020).

B1: Exo70-Flag [rat] / HA-Sec6 [not stated] (parent)
chain 1: MIPPQEASARRREIEDKLKQEEETLSFIRDSLEKSDQLTKNMVSILSSFESRLMKLENSIIPVHKQTENLQRLQENVEKTLSCLDHVISYYHVASDTEKIIREGPTGRLEEYLGSMAKIQKAVEYFQDNSPDSPELNKVKLLFERGKESLESEFRSLMTRHSKVISPVLVLDLISADDELEVQEDVVLEHLPESVLQDVIRISRWLVEYGRNQDFMNVYYQIRSSQLDRSIKGLKEHFRKSSSSSGVPYSPAIPNKRKDTPTKKPIKRPGRDDMLDVETDAYIHCVSAFVRLAQSEYQLLMGIIPEHHQKKTFDSLIQDALDGLMLEGENIVSAARKAIIRHDFSTVLTVFPILRHLKQTKPEFDQVLQGTAASTKNKLPGLITSMETIGAKALEDFADNIKNDPDKEYNMPKDGTVHELTSNAILFLQQLLDFQETAGAMLASQETSSSATSYNSEFSKRLLSTYICKVLGNLQLNLLSKSKVYEDPALSAIFLHNNYNYILKSLEKSELIQLVAVTQKTAERSYREHIEQQIQTYQRSWLKVTDYIAEKNLPVFQPGVKLRDKERQMIKERFKGFNDGLEELCKIQKAWAIPDTEQRDKIRQAQKSIVKETYGAFLHRYSSVPFTKNPEKYIKYRVEQVGDMIDRLFDTSA
chain 2: MCKDSACFSTMKETDLEAVATAVQRVAGMLQRPDQLDKVEQYRRREARKKASVEARLKAAIQSQLDGVRTGLSQLHNALNDVKDIQQSLADVSKDWRQSINTIESLKDVKDAVVQHSQLAAAVENLKNIFSVPEIVRETQDLIEQGALLQAHRKLMDLECSRDGLMCEQYRMDSGNKRDMTLIHGYFGSTQGLSDELAKQLWMVLQRSLVTVRRDPTLLVSVVRIIEREEKIDRRILDRKKQTGFVPPGRPKNWKEKMFAVLDRTVTTRIEGTQADTRESDKMWLVRHLEIIRKYVLDDLVIAKNLLVQCFPPHYDIFKNLLSMYHQALSIRMQDLASEDLEANEIVSLLTWVLNTYTSAEMMGNVELAPEVDVNALEPLLSPNVVSELLDTYMSTLTSNIIAWLRKALETDKKDWSKETEPEADQDGYYQTTLPAIVFQMFEQNLQVAAQISEDLKTKVLVLCLQQMNSFLSRYKEEAQLYKEEHLRNRQHPHCYVQYMVAIINNCQTFKESIISLKRKYLKPETEESLCQSQPSMDGILDAIAKEGCSSLLEEVFLDLEQHLNELMTKKWMLGSNAVDIICVTVEDYFNDFAKIKKPYKKRMTAEAHRRVVVEYLRAVMQKRISFRSAEERKEGAEKMVREAEQLRFLFRKLASGFGEDADGHCDTIVAVAEVIKLTDPSLLYLEVSTLVSKYPDIRDDHIGALLALRGDASRDMKQTIMETLEQGPMQASPNYVPIFQEIVVPSLNVAKLLK
B2: Exo70-Flag [rat] / HA-Sec8 [not stated] (parent)
chain 1: B1 chain 1
chain 2: MAAEAAGGKYRSTVSKSKDPSGLLISVIRTLSTSDDVEDRENEKGRLEEAYEKCDRDLDELIVQHYTELTTAIRTYQSITERITNSRNKIKQVKENLLSCKMLLHCKRDELRKLWIEGIEHKHVLNLLDEIENIKQVPQKLEQCMASKHYLSATDMLVSAVESLEGPLLQVEGLSDLRLELHSKKMNLHLVLIEELHRHLYIKSTSRVVQRNKEKGKMSSHGKDASPGPLIDVSNISTPRKFLDATQYSAAGSSSVREMNLQDIKEDLDCDPEENSTLFMGILIQGLARLKKIPETVKAIKERLEQELKQIVKRSTTQVADSAYQRGESLTVDNQPRLLLELLELLFDKFNAVASAHSIVLGYLQDSVGTQPTQQEEIKLYDMADVWVKIQDVLQMLLTEYLDMKNTRTASEPSAQLSYASTGREFAAFFAKKKPQRPKNSLFKFESSSHAISMSAYLREQRRELYSRSGELQGGPDDNLIEGGGTKFVCKPGARNITVIFHPLLRFIQEIEHALGLGPAKQCLLREFLTIYIKNIFLNQVLTEINKEIEGVTKTSDPLKILANADTMKVLGVQRPLLQSTIIVEKTVQDLMNLMHDLSAYSDQFLNMVCVKLQEYKDTCSTAYRGIVQSEEKLVISASWAKDDDISRLLKSLPNWTNMAQPKQLRPKREEEEDFIRAAFGKESEVLIGNLGDKLIPPQDILRDVSDLKALANMHESLEWLAGRTKSAFSSLSASQMLSPAQESHVNMDLPPVSEQIMQTLSELAKSFQDMADRCLLVLHLEVRVHCFHYLIPLAKEGNYAIVANVESMDYDPLVVKLNKDISAMEEAMSASLQQHKFQYIFEGLGHLISCILINGAQYFRRISESGIKKMCRNIFVLQQNLTNITMSREADLDFARQYYEMLYNTADELLNLVVDQGVKYTELEYIHALTLLHRSQTGVGDQTTQNTRLQRLKEIICEQAAIKQATKDKKITTV
B3: Exo70 wild type, HA-tagged and Flag-tagged copies co-expressed [rat] / itself (parent)
chain: B1 chain 1

In one assay the parent is B1. As to the kind of experiment: co-immunoprecipitation (IP: HA, blot: Flag). Particulars: with HA-Sec6; 293T cells; parent: 1.
As to chain 1 S47D S59D S89D, the response (relative band intensity) came out at 0.31.

The variants in another assay derive from B2. As to the kind of experiment: co-immunoprecipitation (IP: HA, blot: Flag). The settings on record: with HA-Sec8; 293T cells; parent: 1.03.
Take chain 1 S47D S59D S89D: the response (relative band intensity) came out at 0.45.

The variants in the next assay derive from B3. As to the kind of experiment: co-immunoprecipitation (IP: HA, blot: Flag). Particulars: with itself; 293T cells; parent: 1.
Turning to chain 1 S59D S89D, the response (relative band intensity) turned out to be 0.41. For chain 1 S47D S89D, the response (relative band intensity) stood at 0.18. chain 1 S47D S59D S89D: the response (relative band intensity) was 0.03.

In the case of chain 1 S89D, the response (relative band intensity) stood at 0.46.

The same assay, now with this note: with itself; 293T cells; with Myc-ULK1 co-expressed; parent: 0.35.
Take chain 1 S47A S59A S89A: the response (relative band intensity) stood at 2.44.

Consider chain 1 S89A, for which the response (relative band intensity) stood at 1.

As for chain 1 S47A, the response (relative band intensity) is 0.87. On the same count and under the same terms, the value for chain 1 S59A was 1.16.

The assay is the same for the next values; noted with them: with itself; 293T cells; without Myc-ULK1; parent: 1.
Take chain 1 S47A S59A S89A: the response (relative band intensity) was determined as 1.49. On the same count and under the same terms, next, chain 1 S89A: 1.17; chain 1 S47A: 1; chain 1 S59A: 1.31.
